For one substance, Kd results are on record in PMC8667318.

For this assay, the target named is Recombinant human MCHR1 Protein (human) (UniProt Q99705). Nature of the assay: SPR; Biacore T200, CM5 chip, 25°C; MCHR1 immobilised by amine coupling (~5500 RU); PDGF-BB as analyte 100 nM to 3.125 nM; PBS-P (20 mM phosphate pH 7.4, 137 mM NaCl, 2.7 mM KCl, 0.05% P20); 1:1 kinetics model fitting.

As a reminder, the Kd is the free concentration of one partner at which half of the binding sites on the other are occupied at equilibrium, for simple one-to-one binding.

UniProt Q99705, sequence (Q99705 whole entry): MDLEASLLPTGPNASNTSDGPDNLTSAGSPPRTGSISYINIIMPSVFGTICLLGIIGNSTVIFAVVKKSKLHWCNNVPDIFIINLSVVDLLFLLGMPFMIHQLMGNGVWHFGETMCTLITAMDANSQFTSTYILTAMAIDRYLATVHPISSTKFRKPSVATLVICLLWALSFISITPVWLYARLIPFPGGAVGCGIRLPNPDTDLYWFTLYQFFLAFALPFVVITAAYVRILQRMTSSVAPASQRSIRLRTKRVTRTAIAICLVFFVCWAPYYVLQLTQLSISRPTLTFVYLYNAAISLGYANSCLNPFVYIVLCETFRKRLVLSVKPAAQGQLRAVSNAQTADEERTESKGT

Consider “Recombinant human PDGF-BB (from UniProt P01127 82-190) (ligand)”, for which the dissociation constant Kd was 46.6 nM.
